Data reported in patent US20150139990A1 (DAINIPPON SUMITOMO PHARMA, published 2015).
Positions count from the first letter of the chain named. In names and notes the source's numbering stands.

What was measured:
Experiment in all cases: ELISA
[1] = target: T1, human CD81 mutant S168T (human, UniProt P60033 1-236, limits assumed)
T1 construct: as m30; not shown: C-terminal V5 and 6xHis tags
T1 sequence: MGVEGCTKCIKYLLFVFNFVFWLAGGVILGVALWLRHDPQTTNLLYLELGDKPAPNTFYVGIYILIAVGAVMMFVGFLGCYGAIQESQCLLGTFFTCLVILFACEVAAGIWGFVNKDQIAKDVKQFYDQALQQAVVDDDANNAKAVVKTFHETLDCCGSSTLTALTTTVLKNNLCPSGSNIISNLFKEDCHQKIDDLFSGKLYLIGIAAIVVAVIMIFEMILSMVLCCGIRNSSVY
Procedure, shortened: (§1)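 Altered forms of human CD81 carrying C-terminal V5 and 6×His tags were cloned in pcDNA-DEST40 and expressed transiently in CHO cells for 48 hours, after which membranes were solubilised in 1% n-octylglucoside and captured on Ni-NTA His Sorb plates at 5 μg/100 μL/well for 3 hours at 4° C. Antibody was bound for 1 hour at room temperature and detected with HRP anti-human IgG4 and TMB, reading absorbance at 450 nm. Relative binding affinity is expressed as a percentage of binding to unmodified CD81, adjusted for V5-tag expression.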

[2] = target: T2, human CD81 mutant G158S (human, UniProt P60033 1-236, limits assumed)
T2 construct: as m30; not shown: C-terminal V5 and 6xHis tags
T2 sequence: T1 sequence with G158S, T168S
Procedure, shortened: as §1

[3] = target: T3, human CD81 mutant V135L (human, UniProt P60033 1-236, limits assumed)
T3 construct: as m30; not shown: C-terminal V5 and 6xHis tags
T3 sequence: T1 sequence with V135L, T168S
Procedure, shortened: as §1

[4] = target: T4, human CD81 mutant A164T (human, UniProt P60033 1-236, limits assumed)
T4 construct: as m30; not shown: C-terminal V5 and 6xHis tags
T4 sequence: T1 sequence with A164T, T168S
Procedure, shortened: as §1

[5] = target: T5, human CD81 mutant L165A (human, UniProt P60033 1-236, limits assumed)
T5 construct: as m30; not shown: C-terminal V5 and 6xHis tags
T5 sequence: T1 sequence with L165A, T168S
Procedure, shortened: as §1

[6] = target: T6, human CD81 mutant D137E (human, UniProt P60033 1-236, limits assumed)
T6 construct: as m30; not shown: C-terminal V5 and 6xHis tags
T6 sequence: T1 sequence with D137E, T168S
Procedure, shortened: as §1

[7] = target: T7, human CD81 mutant V169L (human, UniProt P60033 1-236, limits assumed)
T7 construct: as m30; not shown: C-terminal V5 and 6xHis tags
T7 sequence: T1 sequence with T168S, V169L
Procedure, shortened: as §1

[8] = target: T8, human CD81 mutant A164V (human, UniProt P60033 1-236, limits assumed)
T8 construct: as m30; not shown: C-terminal V5 and 6xHis tags
T8 sequence: T1 sequence with A164V, T168S
Procedure, shortened: as §1

[9] = target: T9, human CD81 mutant V135A (human, UniProt P60033 1-236, limits assumed)
T9 construct: as m30; not shown: C-terminal V5 and 6xHis tags
T9 sequence: T1 sequence with V135A, T168S
Procedure, shortened: as §1

Measured: relative binding affinity

B1: 002-A07 IgG4 antibody (antibody)
heavy: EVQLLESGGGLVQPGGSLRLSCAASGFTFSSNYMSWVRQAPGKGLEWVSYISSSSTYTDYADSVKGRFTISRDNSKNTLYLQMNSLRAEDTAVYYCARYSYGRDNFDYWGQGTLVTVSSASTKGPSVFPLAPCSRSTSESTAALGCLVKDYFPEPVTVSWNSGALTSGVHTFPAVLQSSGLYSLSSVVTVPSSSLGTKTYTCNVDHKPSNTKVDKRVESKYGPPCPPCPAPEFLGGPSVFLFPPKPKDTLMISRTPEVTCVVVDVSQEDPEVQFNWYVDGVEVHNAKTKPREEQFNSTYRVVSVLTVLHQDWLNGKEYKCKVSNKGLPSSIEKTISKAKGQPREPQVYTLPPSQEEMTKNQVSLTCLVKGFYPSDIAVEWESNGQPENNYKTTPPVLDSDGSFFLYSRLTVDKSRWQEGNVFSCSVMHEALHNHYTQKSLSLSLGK
light: QSVLTQPPSASGTPGQRVTISCTGSTSNIGAGYDTHWYQQLPGTAPKLLIYGNSNRPSGVPDRFSGSKSGTSASLAISGLRSEDEADYYCQSYDTNLSVWVFGGGTKLTVLGQPKAAPSVTLFPPSSEELQANKATLVCLISDFYPGAVTVAWKADSSPVKAGVETTTPSKQSNNKYAASSYLSLTPEQWKSHRSYSCQVTHEGSTVEKTVAPTECS
notes: human IgG4 S228P, lambda light chain
< 20%: all assays above
